Data: publication doi:10.1101/2021.12.03.471045 (bioRxiv, 2021)

Target: early pandemic (Wuhan) SARS-CoV-2 RBD (SARS-CoV-2, UniProt P0DTC2)
Assay: SPR
Details: both partners purified

B1: EY6A mAb (IgG) (antibody, V domains shown)
VH: EVQLVESGGGVVQPGRSLRLSCAASAFTFSSYDMHWVRQAPGKGLEWVAVISYDGSNKYYADSVKGRFTISRDNSKNTLYLQMNSLRAEDTAVYYCAKDGGKLWVYYFDYWGQGTLVTVSS
VL: not shown
- Kd: 7.8 nM
